In paper PMC3985960 (2014) one finds Kd data, which are given here for one molecule.

This test addresses T1, methylamine dehydrogenase (quinone MADH) (Paracoccus denitrificans, UniProt P22619).
T1 chain 1: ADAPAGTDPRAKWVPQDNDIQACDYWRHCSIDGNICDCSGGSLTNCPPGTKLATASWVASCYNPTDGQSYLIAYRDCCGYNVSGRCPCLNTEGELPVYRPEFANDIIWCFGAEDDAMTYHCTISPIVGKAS
T1 chain 2: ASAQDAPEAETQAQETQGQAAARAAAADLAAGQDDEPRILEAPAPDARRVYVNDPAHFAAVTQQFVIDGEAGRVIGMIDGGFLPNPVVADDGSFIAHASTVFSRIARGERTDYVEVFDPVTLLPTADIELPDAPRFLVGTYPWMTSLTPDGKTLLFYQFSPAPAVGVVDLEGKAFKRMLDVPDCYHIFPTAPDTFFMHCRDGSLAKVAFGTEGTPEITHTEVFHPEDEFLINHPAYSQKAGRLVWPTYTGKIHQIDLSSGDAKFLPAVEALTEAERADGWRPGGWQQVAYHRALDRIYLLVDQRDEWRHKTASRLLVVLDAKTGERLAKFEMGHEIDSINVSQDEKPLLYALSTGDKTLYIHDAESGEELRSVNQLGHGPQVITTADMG
The test is described as follows: single-turnover kinetics.

B1: MauG (protein)
chain: EQARPADDALAALGAQLFVDPALSRNATQSCATCHDPARAFTDPREGKAGLAVSVGDDGQSHGDRNTPTLGYAALVPAFHRDANGKYKGGQFWDGRADDLKQQAGQPMLNPVEMAMPDRAAVAARLRDDPAYRTGFEALFGKGVLDDPERAFDAAAEALAAYQATGEFSPFDSKYDRVMRGEEKFTPLEEFGYTVFITWNCRLCHMQRKQGVAERETFTNFEYHNIGLPVNETAREASGLGADHVDHGLLARPGIEDPAQSGRFKVPSLRNVAVTGPYMHNGVFTDLRTAILFYNKYTSRRPEAKINPETGAPWGEPEVARNLSLAELQSGLMLDDGRVDALVAFLETLTDRRYEPLLEESRAAQKD
On to B1, for which binding was characterised by a dissociation constant (Kd) of 10.4 µM.
